Laboratory results from article PMC5255556, “mTORC1 phosphorylates LARP6 to stimulate type I collagen expression” (Scientific Reports, 2017).
Positions count from the first letter of the chain named.

Assays:
[1] = target: T1, wt HA-LARP6 (La ribonucleoprotein domain family, member 6), full length (UniProt Q9BRS8 1-491); experiment: co-IP; HLFs transduced with HA-LARP6 adenovirus; lysate in 50 mM Tris-HCl pH 7.5, 150 mM NaCl, 0.5% NP-40, 1 mM DTT; IP with anti-HA antibody 3 h at 4 °C, protein A/G-agarose, blot with anti-STRAP; cells untreated, treated with rapamycin, or with raptor knockdown (shRNA); details: partners not purified
T1 construct: LARP6 (La ribonucleoprotein domain family, member 6), full-length, re-cloned from pcDNA3 into pAd-CMV-Track; In cells the protein is a mixture of phosphorylated isoforms; The construct is described in earlier work of the authors; also called wt LARP6; FL HA-LARP6; source: HLFs (human lung fibroblasts), adenovirus-transduced, in lysate or in lysed microsomal fraction
T1 sequence (looked up): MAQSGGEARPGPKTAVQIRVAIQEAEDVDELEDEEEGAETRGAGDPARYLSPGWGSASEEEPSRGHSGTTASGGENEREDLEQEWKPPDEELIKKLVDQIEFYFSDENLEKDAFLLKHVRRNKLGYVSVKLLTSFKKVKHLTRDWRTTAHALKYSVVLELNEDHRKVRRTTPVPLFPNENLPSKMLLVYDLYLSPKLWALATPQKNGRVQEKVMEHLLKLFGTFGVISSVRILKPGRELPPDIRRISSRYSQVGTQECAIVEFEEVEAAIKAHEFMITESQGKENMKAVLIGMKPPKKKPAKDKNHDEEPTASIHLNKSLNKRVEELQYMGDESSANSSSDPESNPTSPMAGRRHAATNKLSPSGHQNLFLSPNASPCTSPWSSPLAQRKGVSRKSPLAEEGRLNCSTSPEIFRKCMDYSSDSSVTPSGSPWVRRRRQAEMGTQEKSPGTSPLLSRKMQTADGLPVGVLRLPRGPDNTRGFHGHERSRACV

[2] = target: T2, HA-LARP6 S348A/S409A mutant, full length (UniProt Q9BRS8 1-491, S348A | S409A); experiment: as above; details: partners not purified
T2 construct: LARP6 (La ribonucleoprotein domain family, member 6), full-length, with S348A and S409A; Made by QuickChange site-directed mutagenesis; expressed from adenovirus; source: HLFs (human lung fibroblasts), adenovirus-transduced, in lysate or in lysed microsomal fraction
T2 sequence (looked up): T1 sequence (looked up) with S348A, S409A

B1: serine-threonine kinase receptor-associated protein (STRAP) (natural protein, human (endogenous in HLFs), UniProt Q9Y3F4 1-350, looked up)
chain: MAMRQTPLTCSGHTRPVVDLAFSGITPYGYFLISACKDGKPMLRQGDTGDWIGTFLGHKGAVWGATLNKDATKAATAAADFTAKVWDAVSGDELMTLAHKHIVKTVDFTQDSNYLLTGGQDKLLRIYDLNKPEAEPKEISGHTSGIKKALWCSEDKQILSADDKTVRLWDHATMTEVKSLNFNMSVSSMEYIPEGEILVITYGRSIAFHSAVSLDPIKSFEAPATINSASLHPEKEFLVAGGEDFKLYKYDYNSGEELESYKGHFGPIHCVRFSPDGELYASGSEDGTLRLWQTVVGKTYGLWKCVLPEEDSGELAKPKIGFPETTEEELEEIASENSDCIFPSAPDVKA
notes: STRAP, serine-threonine kinase receptor-associated protein, endogenous in human lung fibroblasts, detected with anti-STRAP antibody; source: endogenous, HLF lysate
- fraction of STRAP pulled down after rapamycin relative to untreated cells [1]: ~0.33 fraction of untreated
- STRAP pulled down relative to wt HA-LARP6 [2]: ~50 % less than wt HA-LARP6
